Results: article PMC9170038

Target: MS2 coat protein, dlFG mutant (Escherichia phage MS2, UniProt P03612, del68-81insG)
Test: 4 mM Mg2+; no ligand; RNA-MaP array; 100 mM Tris-HCl pH 7.5, 80 mM KCl, 4 mM MgCl2, 0.1 mg/mL BSA, 1 mM DTT, 0.01 mg/mL yeast tRNA, 0.01% Tween-20; protein 1.5 nM to 3 uM; 37 C (Table S3)
Conditions: chain copies: 2; label: tethered by stalled RNA polymerase

B1: Eterna 7753129 (Same State - Arginine B) (ssRNA)
RNA: GGGUUGAACUGAAGGAGCGAGAAAUAGAAAGUAAGAAGAUAAGCUAGUGAUGUUAGAAAUUCUCAGGUAGGUCGCAGUAAGAAUU
  Kd: > 3000 nM

B2: Eterna 7708077 (Same State - FMN A) (ssRNA)
RNA: UUUUACGAGUGAUGUUCGUAAUGUAAUAGUUAGGAUAUCGUUUUUUCGAGAAGGAACUUCGAAGUGAUACGAAAGUAUCGCUUCG
  Kd: > 3000 nM

B3: Eterna 7690461 (Exclusion - Theophylline A) (ssRNA)
RNA: UAAUUUAUGUCUUUAAUAUAAUAAUCAGAUACCAGUGAUUUAUGACACCCUUGGCAGCUGUAUAGAGUGAUGUUCUUAUACAUAA
  Kd: > 3000 nM

B4: Eterna 7691153 (Same State - Arginine B) (ssRNA)
RNA: AAUGCAUAGUGAAGGAGCGCGAUUUGCAGUGAUGUUGCAAAUUUAAACAAUCUUAUCUUUUCGCAGGUAGGUCGCACUAUGCAUA
  Kd: > 3000 nM

B5: Eterna 7726887 (Same State - Arginine A) (ssRNA)
RNA: AAUACCUGAGUGAUGUUCAGGGAAUCAGAAGGAGCGUCAAUUAUGACAGGUAGGUCGCUGAAGACAUGUGUGUAUACACAUGUCC
  Kd: > 3000 nM

B6: Eterna 7765403 (Exclusion - FMN A) (ssRNA)
RNA: AGUGAUGUAUGGCGGUUUGUCACUUAAAAUCAGGAUAUAUAAACAAAUAGAAGGGAUGGCGGAGUGAUGUUCCGCCGGCCGCCAU
  Kd: > 3000 nM

B7: Eterna 7690543 (Exclusion - Theophylline B) (ssRNA)
RNA: AUUUAAUUAACUGAUACCAGACUUUAUGUAUUUAUUAAAACUAGUGAUGUUAGUUUAUCUGUCCCUUGGCAGCAGUUUCUACUUA
  Kd: > 3000 nM

B8: Eterna 7692300 (Exclusion - FMN B) (ssRNA)
RNA: UGGGCUGCCUGAGGAUAUAGAGACGAGUGAUGUUCGUGGAUAAGAGCCAGUGAUGUUGGGUUAUUUCUAGAAGGCGGGCGAACUU
  Kd: > 3000 nM

B9: Eterna 7682639 (Same State - Theophylline A) (ssRNA)
RNA: GAAGGUCAAAGACCUUCGUGCACAUCUGAUACCAGUCGCGAAAGCGACCCUUGGCAGCAGGGCAGUGAUGUUGCCAGUGCACAAA
  Kd: > 3000 nM

B10: Eterna 7687680 (Same State - Theophylline A) (ssRNA)
RNA: AUUGAUAUAUAUAUUUGAUUUUUAUGUGAUACCAGACAAGGCAUAGUCCCUUGGCAGCACUUUAUAUUUACGAGUGAUGUUCGUA
  Kd: > 3000 nM

B11: Eterna 7690487 (Same State - Theophylline B) (ssRNA)
RNA: UGUCAUUGGUCUGAUACCAGUUAGACCGAUAGGUCAAAACUGGAGUGAUGUUCCCAAAAUAACCCUUGGCAGCAGACCGAUGACU
  Kd: > 3000 nM

B12: Eterna 7712973 (Exclusion - Theophylline A) (ssRNA)
RNA: AGACCUCAGUGAUGUUGAGGUAACACUGAUACCAGCGACUUAAUUCGCCCUUGGCAGCAGUCCACCGAGGUAUCUGAUUAGGUCA
  Kd: > 3000 nM

B13: Eterna 7729660 (Same State - Arginine B) (ssRNA)
RNA: ACGAAGGAUGGAAGGAGCGCUCGUCAGUCCUGCGAGUGAUGUUCGUGGGUAAAUAGUCGCGAGCAGGUAGGUCGCCAUCUUGAGC
  Kd: > 3000 nM

B14: Eterna 7716236 (Same State - Tryptophan B) (ssRNA)
RNA: GCGCGGCAGGCGGCCGCCACUCUGACGAGCCACAGUGAUGUUGUGGUCGGAGAAACGUCUUCAUAGAGGACCGGGUUUGUUGUUC
  Kd: > 3000 nM

B15: Eterna 7720377 (Same State - Arginine B) (ssRNA)
RNA: GCCUAGCAGGGAAGGAGCGGCAUAAGCAUAGAUAAUAUGCAGUUAGUGAUGUUAAUACUAUGCCAGGUAGGUCGCCCUGCUAGGC
  Kd: > 3000 nM

B16: Eterna 7652494 (Same State - Tryptophan B) (ssRNA)
RNA: AGUAGACACGCGGCCGCCACUUGAGGAUCACCCAGGUGGUGUGUACUUGAAAACAAGUGCACAUCAAGGACCGGGCGUGUCUACA
  Kd: 12.7 nM

B17: Eterna 7710839 (Same State - Theophylline A) (ssRNA)
RNA: UAAUAAAUAAAUCCAAGGUGAAGGUCAGAUACCAGCCAGAUAACUGGCCCUUGGCAGCUGAAUAAGCUUGAGGAUCACCCAAGUA
  Kd: 36.1 nM

B18: Eterna 7729929 (Exclusion - Tryptophan B) (ssRNA)
RNA: GGAUAGGACACGGCCGCCACUAGCUAGGAUACUAGCAACAUUUCCUCAUCUGAGGAUCACCCAGGUAGGACCGGGUGUCCUAUCG
  Kd: 563 nM

B19: Eterna 7730362 (Exclusion - Arginine B) (ssRNA)
RNA: GGACUAACCAGAAGGAGCGGCGCGCAGAAACUGCUAAUUCCUCCGCACGAGGAUCACCCGUGUCAGGUAGGUCGCUGGUUAGUCG
  Kd: 10 nM

B20: Eterna 7710140 (Exclusion - Tryptophan A) (ssRNA)
RNA: AGCUCGCAAUCCUCAGCGUCAAAGACGCGUCGAGGACCGGUACGGCCGCCACUCGACAAGAGGAUCACCCUUGUCUAAGCGAGCA
  Kd: 330 nM

B21: Eterna 7637577 (Same State - Tryptophan B) (ssRNA)
RNA: GUAGCUAUCGCGGCCGCCACUAAACCGGAAACGGAACAGGAGGAUCACCCUUGUGGCGAAAGCCAUAGGACCGGGCGAUAGCUAC
  Kd: 483 nM

B22: Eterna 11587 (Sensor for hsa-mir-208a) (ssRNA)
RNA: AUUUAACAAGCUUUUUGCUCGUCUUAUAAACAUGAGGAUCACCCAUGUAAUAGCGUGAGAGUAAAUAAUUUAAUAAU
  Kd: 11.3 nM

B23: Eterna 6424838 (Exclusion NG 2) (ssRNA)
RNA: GCCGGUUCCCUAGGAUAUGUACAUGAGGAUCACCCAUGUGCCUCUAGAGCCGGAACAGGGCAUGUACAGAAGGAGGGUCGACCC
  Kd: 7.13 nM

B24: Eterna 6430949 (Inverted Small Loop Exclusion NG 1) (ssRNA)
RNA: GGGACCUACGAGAAGGGCUACAUGAGGAUCACCCAUGUAAAUCUUCGGGUGGCAGGAUAUCGGCGGCUACAGGAGGGCCAGGUC
  Kd: 8.57 nM

B25: Eterna 6456627 (Same State NG 3) (ssRNA)
RNA: GCGCCUCAGAACAUGAGGAUCACCCAUGUGCUGCGGGCGCCGUAGGAUAUGAUGGUACGCUACCAUCAGAAGGAUGAUGGUACC
  Kd: 4.99 nM

B26: Eterna 6457182 (Inverted Small Loop Same State NG 1) (ssRNA)
RNA: CGUCUAUGCAAGAAGGCAUGAAACAUGAGGAUCACCCAUGUCAAAGACAUGAGGAUAUUGCAUAGACGAAAAGUGCGAAAGCAC
  Kd: 4.44 nM

B27: Eterna 6430991 (Inverted Small Loop Exclusion NG 1) (ssRNA)
RNA: CCUCGCUGUUAGAAGGCACCUUCGGCUUUGGCUUUUGGAGUUGGGCGAUGGUGAGGAUAUAACAUGAGGAUCACCCAUGUUCAA
  Kd: 9.79 nM

B28: Eterna 6079023 (Exclusion 4) (ssRNA)
RNA: UUCACGUCAGGAUAUCCAUAUUUCCGAAAUAACGGUACUUUGGAGAAGGGACAUGAGGAUCACCCAUGUCCUCG
  Kd: 17.9 nM

B29: Eterna 7627109 (Same State - Theophylline A) (ssRNA)
RNA: CUCCGAGGCUAUACUAUCCGCCUCUGUGAUACCAGAAUACCUAUAUUCCCUUGGCAGCAUCACAUGAGGAUCACCCAUGUGCCAU
  Kd: 13.2 nM

B30: Eterna 6084857 (Exclusion 6) (ssRNA)
RNA: UCAAAUACUGAGGAUAUAACGACUGAAUCCGCGUUAGAAGGUAGUACAUGAGGAUCACCCAUGUCAACCAGAGG
  Kd: 17.2 nM

B31: Eterna 6420697 (Small Loop Exclusion NG 3) (ssRNA)
RNA: AUCGUUGACUGGACGAGAAUAGGGCAGGAUAUACAUGAGGAUCACCCAUGUGAAGCACGAAAGAGGUAGAAGGGCCCACGUCAU
  Kd: 16.1 nM

B32: Eterna 6389671 (Inverted Exclusion NG 2) (ssRNA)
RNA: ACUUGUAAGUAGAAGGUAGUCAUUAUAUUAAUCAUGUAAACAUGAGGAUCACCCAUGUAGAGUACUAAGGAUAUACAUCGAUAG
  Kd: 15.2 nM

B33: Eterna 9759 (Exclusion 4) (ssRNA)
RNA: GUCGAGUGAGGAUAUGGUGAGUAGUGCCUGAGCGCUGCUCACCAGAAGGCACAUGAGGAUCACCCAUGUAUAGC
  Kd: 16.7 nM

B34: Eterna 6429368 (Inverted Exclusion NG 2) (ssRNA)
RNA: AUGUCUUAGUAGAAGGGACAUCGGCUGGUAAGCAUCAUCUCCUUCUCACAUGAGGAUCACCCAUGUCAGGAUAUACUAAGAUAC
  Kd: 12.8 nM

B35: Eterna 6411926 (Small Loop Same State NG 1) (ssRNA)
RNA: GUAUUUAGAUAAGGAUAUAAGUCUAUGACAUGAGGAUCACCCAUGUGUGUCUUAGAAGGUAUUUGGGUAAUAUUGUUACAGUAA
  Kd: 44.2 nM

B36: Eterna 15621 (Same State 1) (ssRNA)
RNA: GCAUCACAUGAGGAUCACCCAUGUCUUCGGAGCGGAGGAUAUGGUCACUGUAAACAGUGGCCAGAAGGCUGGAUGC
  Kd: 32.4 nM

B37: Eterna 6443759 (Same State NG 2) (ssRNA)
RNA: AUUAUAAUUGAAGGAUAUCUAUAUCCAACAUGAGGAUCACCCAUGUUGAGGAUCACCCAUGUAAAGGAGAAGGUUAAUUAUAAU
  Kd: 101 nM

B38: Eterna 6056927 (Brourd's mod of Exclusion 4) (ssRNA)
RNA: GGUCCUUCUGUUAGGAUAUGCUAUGGGCUUCCGCAGUAGAAGGAACAUGAGGAUCACCCAUGUCCGAUGCCGUA
  Kd: 67.5 nM

B39: Eterna 6049957 (Exclusion 6) (ssRNA)
RNA: CUGAGUAGUCAGGAUAUGUGGUACAAAAGUACUGCAGAAGGGAUUACAUGAGGAUCACCCAUGUUUUCUUCAUG
  Kd: 52 nM

B40: Eterna 7684615 (Exclusion - Tryptophan A) (ssRNA)
RNA: AAAAUUGCGGUCGAUAGAACUUUUUGCUUACGAGGACCGGUACGGCCGCCACUCGAGUCAAGUGAUGUUUGAUUUUCUAUUAUUA
  Kd: > 3000 nM

B41: Eterna 6108893 (Exclusion NG 1) (ssRNA)
RNA: GCGUAAAAUGUAGGAUAUGACACAGGAAACUGGUCAGAAGGACAUGAGGAUCACCCAUGUAAAAUGUUCAAGAAUAACUCAUGC
  Kd: 123 nM

B42: Eterna 5958224 (Same State NG 3) (ssRNA)
RNA: CGAGGCGUACAUGAGGAUCACCCAUGUACCUAACAACAAAGCAAGGAUAUCCUGGCUAUAAUACAGGAGAAGGUGUGGUCCUUA
  Kd: 135 nM
